From paper PMC7539009, “Mechanism and evolution of the Zn-fingernail required for interaction of VARP with VPS29” (Nature Communications, 2020)

B1: GST-TBC1D5 (residues 132–156) (domain or fragment)
chain: GQQDLMINNPLSQDEGSLWNKFFQD
notes: TBC1D5 residues 132-156, holds the Asn Pro Leu motif and the short helix upstream of it; also called TBC1D5 (132–156); not shown: GST, N-terminal, kept
B2: GST-VARP residues 692-746, 4C mutant (all four Cys to Ser) (domain or fragment)
chain: TEEDLEDAEDTVSAADPEFSHPLSQSPKSAPAQKRLAKVPASGLGVNVTSQDGSSW
notes: non-native Trp residue numbered 747; source: E. coli BL21 (DE3) pLysS, pGEX6P1, purified (GST-Sepharose, S75 Superdex gel filtration); not shown: GST, N-terminal, kept

How the values were obtained:
[1] = molecular target: long VPS29 (isoform with the N-terminal sequence …) (UniProt Q9UBQ0-2 1-186); assay: SPR; Biacore T200; GST fusion captured on goat anti-GST antibody coupled to a CM5 chip, GST-CLA on the blank flow cell; VPS29 as analyte, typically 40 to 0.3 μM; 20 mM Tris, 200 mM NaCl, 0.1 mM TCEP, 0.5 μM ZnCl2, pH 7.4; 12 °C for the KD of 2–3 µM; equilibrium and kinetic analysis, single site; conditions: both partners purified
[2] = molecular target: VPS29 (short isoform, N-terminal sequence MLVL), untagged (UniProt Q9UBQ0-1 1-182); assay: as above; conditions: both partners purified

Kd [1] [µM]	Kd [2] [µM]	Binder
~67	> 300	B1
–	55	B2
